{"source": "the RNAGym collection of RNA variant scans (doi:10.1021/acssynbio.7b00057)", "parents": {"B1": {"name": "Pistol ribozyme (parent)", "chain": "GGGUCGUUGUUCCAUAAUCGCGUGGAUAUGGCACGCAAGUUUCUACCGGGCACCGUAAAUGUCCGACUGGAGCCGUUCGGGCGGCUAUAAACAGACCUCAGGCCCGAAGCGUGGCGGCACCUGCCGCCGGUGGUAAAAAAGAUCGGAAGAGCACACGUCU"}}, "data": [{"variants_of": "B1", "experiment": "aptazyme ON/OFF ratio, guanine; higher = stronger switching; co-transcriptional cleavage with and without guanine", "values": [{"variant": "GGGUCGGAAGUACAUAAUCGCGUGGAUAUGGCACGCAAGUUUCUACCGGGCACCGUAAAUGUCCGACUGGAGCCGUUCGGGCGGCUAUAAACAGACCUCAGGCCCGAAGCGUGGCGGCACCUGCCGCCGGUGGUAAAAAAGAUCGGAAGAGCACACGUCU", "aptazyme ON/OFF ratio": 1.32}, {"variant": "GGGUCGGAAGUGCAUAAUCGCGUGGAUAUGGCACGCAAGUUUCUACCGGGCACCGUAAAUGUCCGACUGGAGCCGUUCGGGCGGCUAUAAACAGACCUCAGGCCCGAAGCGUGGCGGCACCUGCCGCCGGUGGUAAAAAAGAUCGGAAGAGCACACGUCU", "aptazyme ON/OFF ratio": 1.09}, {"variant": "GGGUCGGAAGUUCAUAAUCGCGUGGAUAUGGCACGCAAGUUUCUACCGGGCACCGUAAAUGUCCGACUGGAGCCGUUCGGGCGGCUAUAAACAGACCUCAGGCCCGAAGCGUGGCGGCACCUGCCGCCGGUGGUAAAAAAGAUCGGAAGAGCACACGUCU", "aptazyme ON/OFF ratio": 1.52}, {"variant": "GGGUCGGAAGUCCAUAAUCGCGUGGAUAUGGCACGCAAGUUUCUACCGGGCACCGUAAAUGUCCGACUGGAGCCGUUCGGGCGGCUAUAAACAGACCUCAGGCCCGAAGCGUGGCGGCACCUGCCGCCGGUGGUAAAAAAGAUCGGAAGAGCACACGUCU", "aptazyme ON/OFF ratio": 1.49}, {"variant": "GGGUCGGAAGUUAAUAAUCGCGUGGAUAUGGCACGCAAGUUUCUACCGGGCACCGUAAAUGUCCGACUGGAGCCGUUCGGGCGGCUAUAAACAGACCUCAGGCCCGAAGCGUGGCGGCACCUGCCGCCGGUGGUAAAAAAGAUCGGAAGAGCACACGUCU", "aptazyme ON/OFF ratio": 1.27}, {"variant": "GGGUCGGAACGUUAUAAUCGCGUGGAUAUGGCACGCAAGUUUCUACCGGGCACCGUAAAUGUCCGACUGGAGCCGUUCGGGCGGCUAUAAACAGACCUCAGGCCCGAAGCGUGGCGGCACCUGCCGCCGGUGGUAAAAAAGAUCGGAAGAGCACACGUCU", "aptazyme ON/OFF ratio": 1.12}, {"variant": "GGGUCGGAACGUGAUAAUCGCGUGGAUAUGGCACGCAAGUUUCUACCGGGCACCGUAAAUGUCCGACUGGAGCCGUUCGGGCGGCUAUAAACAGACCUCAGGCCCGAAGCGUGGCGGCACCUGCCGCCGGUGGUAAAAAAGAUCGGAAGAGCACACGUCU", "aptazyme ON/OFF ratio": 1.14}, {"variant": "GGGUCGGAACGUAAUAAUCGCGUGGAUAUGGCACGCAAGUUUCUACCGGGCACCGUAAAUGUCCGACUGGAGCCGUUCGGGCGGCUAUAAACAGACCUCAGGCCCGAAGCGUGGCGGCACCUGCCGCCGGUGGUAAAAAAGAUCGGAAGAGCACACGUCU", "aptazyme ON/OFF ratio": 1.1}, {"variant": "GGGUCGGAACGCGAUAAUCGCGUGGAUAUGGCACGCAAGUUUCUACCGGGCACCGUAAAUGUCCGACUGGAGCCGUUCGGGCGGCUAUAAACAGACCUCAGGCCCGAAGCGUGGCGGCACCUGCCGCCGGUGGUAAAAAAGAUCGGAAGAGCACACGUCU", "aptazyme ON/OFF ratio": 1.15}, {"variant": "GGGUCGGAACGCAAUAAUCGCGUGGAUAUGGCACGCAAGUUUCUACCGGGCACCGUAAAUGUCCGACUGGAGCCGUUCGGGCGGCUAUAAACAGACCUCAGGCCCGAAGCGUGGCGGCACCUGCCGCCGGUGGUAAAAAAGAUCGGAAGAGCACACGUCU", "aptazyme ON/OFF ratio": 1.14}, {"variant": "GGGUCGGAACGCUAUAAUCGCGUGGAUAUGGCACGCAAGUUUCUACCGGGCACCGUAAAUGUCCGACUGGAGCCGUUCGGGCGGCUAUAAACAGACCUCAGGCCCGAAGCGUGGCGGCACCUGCCGCCGGUGGUAAAAAAGAUCGGAAGAGCACACGUCU", "aptazyme ON/OFF ratio": 1.09}, {"variant": "GGGUCGGAAGUAGAUAAUCGCGUGGAUAUGGCACGCAAGUUUCUACCGGGCACCGUAAAUGUCCGACUGGAGCCGUUCGGGCGGCUAUAAACAGACCUCAGGCCCGAAGCGUGGCGGCACCUGCCGCCGGUGGUAAAAAAGAUCGGAAGAGCACACGUCU", "aptazyme ON/OFF ratio": 1.06}, {"variant": "GGGUCGGAAGUAUAUAAUCGCGUGGAUAUGGCACGCAAGUUUCUACCGGGCACCGUAAAUGUCCGACUGGAGCCGUUCGGGCGGCUAUAAACAGACCUCAGGCCCGAAGCGUGGCGGCACCUGCCGCCGGUGGUAAAAAAGAUCGGAAGAGCACACGUCU", "aptazyme ON/OFF ratio": 1.37}, {"variant": "GGGUCGGAAGUAAAUAAUCGCGUGGAUAUGGCACGCAAGUUUCUACCGGGCACCGUAAAUGUCCGACUGGAGCCGUUCGGGCGGCUAUAAACAGACCUCAGGCCCGAAGCGUGGCGGCACCUGCCGCCGGUGGUAAAAAAGAUCGGAAGAGCACACGUCU", "aptazyme ON/OFF ratio": 1.18}, {"variant": "GGGUCGGAACGUCAUAAUCGCGUGGAUAUGGCACGCAAGUUUCUACCGGGCACCGUAAAUGUCCGACUGGAGCCGUUCGGGCGGCUAUAAACAGACCUCAGGCCCGAAGCGUGGCGGCACCUGCCGCCGGUGGUAAAAAAGAUCGGAAGAGCACACGUCU", "aptazyme ON/OFF ratio": 1.28}, {"variant": "GGGUCGGAAGUGAAUAAUCGCGUGGAUAUGGCACGCAAGUUUCUACCGGGCACCGUAAAUGUCCGACUGGAGCCGUUCGGGCGGCUAUAAACAGACCUCAGGCCCGAAGCGUGGCGGCACCUGCCGCCGGUGGUAAAAAAGAUCGGAAGAGCACACGUCU", "aptazyme ON/OFF ratio": 1.1}, {"variant": "GGGUCGGAAGUGGAUAAUCGCGUGGAUAUGGCACGCAAGUUUCUACCGGGCACCGUAAAUGUCCGACUGGAGCCGUUCGGGCGGCUAUAAACAGACCUCAGGCCCGAAGCGUGGCGGCACCUGCCGCCGGUGGUAAAAAAGAUCGGAAGAGCACACGUCU", "aptazyme ON/OFF ratio": 1.09}, {"variant": "GGGUCGGAAGUGUAUAAUCGCGUGGAUAUGGCACGCAAGUUUCUACCGGGCACCGUAAAUGUCCGACUGGAGCCGUUCGGGCGGCUAUAAACAGACCUCAGGCCCGAAGCGUGGCGGCACCUGCCGCCGGUGGUAAAAAAGAUCGGAAGAGCACACGUCU", "aptazyme ON/OFF ratio": 1.23}]}]}
